The target of assay [1] is T1, cystic fibrosis transmembrane conductance regulator (CFTR) inhibitory factor (Cif) (Pseudomonas aeruginosa).
T1 chain: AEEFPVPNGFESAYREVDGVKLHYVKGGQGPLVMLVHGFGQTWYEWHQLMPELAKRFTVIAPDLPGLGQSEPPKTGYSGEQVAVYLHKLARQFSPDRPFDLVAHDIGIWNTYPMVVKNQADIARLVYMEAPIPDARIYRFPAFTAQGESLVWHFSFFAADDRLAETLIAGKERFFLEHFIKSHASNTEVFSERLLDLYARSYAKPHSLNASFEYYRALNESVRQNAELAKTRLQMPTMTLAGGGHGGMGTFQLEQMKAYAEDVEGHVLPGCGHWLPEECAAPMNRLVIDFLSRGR
Kind of assay: sandwich ELISA. On the technique in general: An ELISA detects its analyte on a solid surface through an enzyme-linked reagent.

Assay [2] deals with cystic fibrosis transmembrane conductance regulator (CFTR) inhibitory factor (Cif) (Pseudomonas aeruginosa). In words: cell-based or functional assay.

Residue numbers refer to the chain shown, from its start.

B1: VHH CLONE 108 (VHH)
VHH: EVQLVESGGGLVQPGGSLRLSCEATGNFDDRGIGWFRQAPGKEREGIACITTRGRTHYAESVEGRFTISTDIANNAVYLQMNSLKPEDTAVYYCAKAIRLTTDRTQCVAFPGVSWGRGTQVTVSS
Turning to B1, in assay [1], the IC50 was found to be 0.0098 µg/mL. In assay [2], the % inhibition of Cif activity, [nab] tested 0.275 mg/mL was found to be 19%.

B2: VHH CLONE 205 (VHH)
VHH: DVQLQASGGGLVQPGGSLRLSCAATGSTDRIAFMGWYRQAPGKLRELVAGITSDGRTNYADDVDVSGRFTISRDSAKNMVYLQMNSLKPEDTAVYYCNADITLAMGGLRVYWGQGTQVTVSS
As to B2, the IC50 in assay [1] came out at 0.0207 µg/mL. Also, in assay [2], the % inhibition of Cif activity, [nab] tested 0.125 mg/mL came out at 0%.

B3: VHH CLONE 213 (VHH)
VHH: EVQLVESVGGLVQPGGSLRLSCVASGNIGDIYTMGWYRQAPGKQRELVATVGDGGLTNFVDSVKGRFTISRDKSKGTVSLEMNSLKPEDTAVYYCNADVRIGPTGLRVYWGQGTQVTVSS
In assay [1], B3 yielded an IC50 of 0.011 µg/mL. In assay [2], this molecule came in with a % inhibition of Cif activity, [nab] tested 0.55 mg/mL of 0%.

B4: VHH CLONE 302 (VHH)
VHH: B3 VHH with E1Q, Q3K, V5Q, V8G
B4 yielded an IC50 in assay [1] of 0.0172 µg/mL. In assay [2], this molecule yielded a % inhibition of Cif activity, [nab] tested 0.5 mg/mL of 0%.

B5: VHH CLONE 220 (VHH)
VHH: B3 VHH with V8G, D30N, T50A, D53A, G55E, F59Y, R100S
Turning to B5, the IC50 in assay [1] turned out to be 0.0211 µg/mL. In addition, the % inhibition of Cif activity, [nab] tested 0.475 mg/mL in assay [2] worked out at 0%.

B6: VHH CLONE 103 (VHH)
VHH: EVQLMESAGGLVRPGGSLRLSCVASGSIGDIYSMGWYRQAPGKQRELVATVGAGGLTDYGDSVLGRFTISRDKTKGTVSLEMNSLKPEDTAVYYCNADVSIGPTGLRVYWGQGTQVTVSS
The molecule B6 returned an IC50 in assay [1] of 0.0168 µg/mL. In assay [2], this molecule returned a % inhibition of Cif activity, [nab] tested 0.5 mg/mL of 2%.

B7: VHH CLONE 320 (VHH)
VHH: DVQLQASGGGLVQPGGSLRLSCATSTSVFSITTLGWYRQAPGKQRELVASMKRGGDTNYADSVKGRFTISRDNARNTVFLQMNNLTTEDTAVYYCNAAILAYTGAVTNYWGQGTQVTVSS
In turn, B7 yielded an IC50 in assay [1] of 0.0061 µg/mL. The same molecule showed a % inhibition of Cif activity, [nab] tested 0.23 mg/mL in assay [2] of 9%.

B8: VHH CLONE 116 (VHH)
VHH: EVQLVESGGGLVQPGGSLRLSCTASGSILKIYTMDWYRQAPGKQRDLVATVSSRGDTDYTDSVKGRFTISRDDAKNTAYLQMSSLKPEDTAVYYCNFYIQSRTAPFNDYWGQGTQVTVSS
For B8, in assay [1], the IC50 is 0.0312 µg/mL. In assay [2], this molecule returned a % inhibition of Cif activity, [nab] tested 0.275 mg/mL of 11%.

Broadly, the IC50 is the midpoint of a concentration-inhibition curve. A higher IC50 goes with weaker potency in that assay.

(Values after patent US20200231659A1 (published 2020).)
